The record followed here is patent US20170326260A1 (CYTOMX THERAPEUTICS, published 2017).

One assay addresses parental antibody C225v5. Nature of the assay: ELISA; target antibody coated at 1 ug/ml, HRP anti-rabbit IgG, OD 450 nm. (In an ELISA, binding on a coated surface is turned into a signal by an enzyme label.)
Assay [1] has as its target 3954-1204-c225v5 activatable anti-EGFR antibody activated with uPA. Described as above.
Protocol: (§1) The plates were washed with PBS/0.05% Tween 20 (wash butter) and then blocked with PBS/1% BSA for 1 hour at room temperature. The blocking buffer was removed, and the anti-AA antibodies 41, 58, 72 or 85, i.e., antibodies that bind activatable antibodies and/or conjugated activatable antibodies, were added and incubated for 1 hour. The plates were washed with wash buffer and incubated with 50 μl of 1 μg/ml of horseradish peroxidase conjugated donkey anti-rabbit IgG antibody for 1 hour. The plates were washed with wash buffer and 100 μl/well of TMB substrate was added. The reaction was stopped by the addition of 100 μl 1M HCl and the OD 450 nm was measured.

Protocol for parental antibody C225v5: as §1

B1: antibody 85-1 (antibody, V domains shown)
VH: QSLEESGGHLVTPGTPLTLTCKASGFSLSSYCMSWVRQAPGKGLEWIGIIGGICSTYYAAWAKGRFTISKTSTTVDLKIASPTTEDTATYFCARPAYNSDPIWGPGTLVTVSS
VL: QVLTQTPSPVSVAVGGTVTINCQASQSVYNNNYLSWYQQKPGQPPKVLIYDAATLASGVSSRFRGSGSGTQFTLTISDVQCDDAATYYCLGEFSCGSADCNAFGGGTEVVVKG
notes: also called clone 85
Turning to B1, the binding result (with parental antibody C225v5; in assay [1]) was “no binding” in each case.
